The RNAGym collection of RNA variant scans (doi:10.7554/elife.80360)

B1: Hairpin Ribozyme (parent)
chain: GUCCUCUUUCACGUGCGCGUGAAAGAGAGAAGUGAACCAGAGAAACACACGUUGUGGUAUAUUACCUGGUA

Variants of: B1
Assay: self-cleavage, relative activity (ratio to wild type); higher = more cleavage; co-transcriptional

Going from GUCCUCUUUCACGUGCGCGUGAAAGAGCGAAGUUAACCAGAGAAACACACGUUGUGGUAUAUUACCUGGUA [A28C G34U] to GUCCUCUUUCACGUGCGCGUGAAAGAGCGAAGUAAACCAGAGAAACACACGUUGUGGUAUAUUACCUGGUA [A28C G34A], the self-cleavage falls from 1.23 to 0.753.

Compared with GUCCUCUUUCACGUGCGCGUGAAAGAGCGAAGUGAACCAGAGAAACACACGUUGUGGUAUAUUACAUGGUA [A28C C66A], GUCCUCUUUCACGUGCGCGUGAAAGAGCGAAGUGAAGCAGAGAAACACACGUUGUGGUAUAUUACCUGGUA [A28C C37G] is higher in self-cleavage: 0.0844 for the first, 0.199 for the second.

Compared with GUCCUCUUUCACGUGCGCGUGAAAGAGCGAAGUGAACCAGAGAAACACACUUUGUGGUAUAUUACCUGGUA [A28C G51U], GUCCUCUUUCACGUGCGCGUGAAAGAGCGGAGUGAACCAGAGAAACACACGUUGUGGUAUAUUACCUGGUA [A28C A30G] is lower in self-cleavage: 0.746 for the first, 0.136 for the second.

Compared with GUCCUCUUUCACGUGCGCGUGAAAGAGCGCAGUGAACCAGAGAAACACACGUUGUGGUAUAUUACCUGGUA [A28C A30C], GUCCUCUUUCACGUGCGCGUGAAAGAGCGUAGUGAACCAGAGAAACACACGUUGUGGUAUAUUACCUGGUA [A28C A30U] is higher in self-cleavage: 0.0316 for the first, 0.126 for the second.

Going from GUCCUCUUUCACGUGCGCGUGAAAGAGCGAAGUGAACCAAAGAAACACACGUUGUGGUAUAUUACCUGGUA [A28C G40A] to GUCCUCUUUCACGUGCGCGUGAAAGAUAGAAGUGAACCAGAGAAACACACUUUGUGGUAUAUUACCUGGUA [G27U G51U], the self-cleavage rises from 0.131 to 0.402.

Compared with GUCCUCUUUCACGUGCGCGUGAAAGAGCGAAGUGAACCAGAUAAACACACGUUGUGGUAUAUUACCUGGUA [A28C G42U], GUCCUCUUUCACGUGCGCGUGAAAGAUAGAAGUGAACCGGAGAAACACACGUUGUGGUAUAUUACCUGGUA [G27U A39G] is higher in self-cleavage: 0.0852 for the first, 0.149 for the second.

First: GUCCUCUUUCACGUGCGCGUGAAAGAUAGAAGUGAACCAGAGAAACACACGUUCUGGUAUAUUACCUGGUA [G27U G54C]
Second: GUCCUCUUUCACGUGCGCGUGAAAGAUAGAAGUGAACCAGAGAAACACACGUUUUGGUAUAUUACCUGGUA [G27U G54U]
The self-cleavage of the first is lower: 0.133 for the first, 0.208 for the second.

Going from GUCCUCUUUCACGUGCGCGUGAAAGAUAGAAGUGAACCAGAGAAACACACGUUAUGGUAUAUUACCUGGUA [G27U G54A] to GUCCUCUUUCACGUGCGCGUGAAAGAUAGAACUGAACCAGAGAAACACACGUUGUGGUAUAUUACCUGGUA [G27U G32C], the self-cleavage falls from 0.26 to 0.129.

Compared with GUCCUCUUUCACGUGCGCGUGAAAGAUAGAAGUGAACCAGAGAAACACACGUUGUGGUUUAUUACCUGGUA [G27U A59U], GUCCUCUUUCACGUGCGCGUGAAAGAUAGAAGUGACCCAGAGAAACACACGUUGUGGUAUAUUACCUGGUA [G27U A36C] is lower in self-cleavage: 0.146 for the first, 0.0992 for the second.

Compared with GUCCUCUUUCACGUGCGCGUGAAAGAUAGAAGUGAUCCAGAGAAACACACGUUGUGGUAUAUUACCUGGUA [G27U A36U], GUCCUCUUUCACGUGCGCGUGAAAGAUAGAAGUGAGCCAGAGAAACACACGUUGUGGUAUAUUACCUGGUA [G27U A36G] is higher in self-cleavage: 0.0647 for the first, 0.393 for the second.

Going from GUCCUCUUUCACGUGCGCGUGAAAGAUAGAAGUCAACCAGAGAAACACACGUUGUGGUAUAUUACCUGGUA [G27U G34C] to GUCCUCUUUCACGUGCGCGUGAAAGAUAGAAGUGAACCAGAGAAACUCACGUUGUGGUAUAUUACCUGGUA [G27U A47U], the self-cleavage falls from 1.16 to 0.192.

Compared with GUCCUCUUUCACGUGCGCGUGAAAGAUAGAAGUGAACCAGAGAAACACACGUUGUGGUAUAUCACCUGGUA [G27U U63C], GUCCUCUUUCACGUGCGCGUGAAAGAGCGAAGUGAACCAGAGAAACACAUGUUGUGGUAUAUUACCUGGUA [A28C C50U] is higher in self-cleavage: 0.0849 for the first, 0.168 for the second.

First: GUCCUCUUUCACGUGCGCGUGAAAGAUAGAAGUGAACCAGAGAAACACAUGUUGUGGUAUAUUACCUGGUA [G27U C50U]
Second: GUCCUCUUUCACGUGCGCGUGAAAGAUAGAAGUGAACCAGAGAAACACAGGUUGUGGUAUAUUACCUGGUA [G27U C50G]
The self-cleavage of the first is higher: 0.214 for the first, 0.175 for the second.

First: GUCCUCUUUCACGUGCGCGUGAAAGAUAGAAGUGAACCAGAGAAACACACGUUGUGGUAUAUUACCUGGGA [G27U U70G]
Second: GUCCUCUUUCACGUGCGCGUGAAAGAUAGAAGUGAACCAGAGAAACACACGUUGUGGUAUAUUACCUGCUA [G27U G69C]
The self-cleavage of the first is higher: 0.228 for the first, 0.2 for the second.

Going from GUCCUCUUUCACGUGCGCGUGAAAGAUAGAAGUGAACCAGAGAAACACACGUUGUGGUAUAUUACCUGUUA [G27U G69U] to GUCCUCUUUCACGUGCGCGUGAAAGAUAGAAGUGAACCAGAGAAACACACGUUGUGGUAUAUUACCUGAUA [G27U G69A], the self-cleavage falls from 0.152 to 0.0822.

Going from GUCCUCUUUCACGUGCGCGUGAAAGAUAGAAGUGAACCAGAGAAACACACGUUGUGGUAUAUUGCCUGGUA [G27U A64G] to GUCCUCUUUCACGUGCGCGUGAAAGAUAGAAGUGAACCAGAGAAACACGCGUUGUGGUAUAUUACCUGGUA [G27U A49G], the self-cleavage rises from 0.205 to 0.214.

Compared with GUCCUCUUUCACGUGCGCGUGAAAGAUAGAAGUGAACCAGAGAAACACACGUUGUGGUAUAUUACAUGGUA [G27U C66A], GUCCUCUUUCACGUGCGCGUGAAAGAUAGAAGUGAACCAGAGAAACACACGUUGUGGUAUAUUACCCGGUA [G27U U67C] is lower in self-cleavage: 0.169 for the first, 0.0907 for the second.

Going from GUCCUCUUUCACGUGCGCGUGAAAGAUAGAAGUGAACCAGAGAAACACACGUUGUGGUAUAUUACCGGGUA [G27U U67G] to GUCCUCUUUCACGUGCGCGUGAAAGAGCGAAGUGAACCAGAGAAACACGCGUUGUGGUAUAUUACCUGGUA [A28C A49G], the self-cleavage rises from 0.111 to 0.173.

Compared with GUCCUCUUUCACGUGCGCGUGAAAGAGCGAAGUGAACCAGAGAAACACUCGUUGUGGUAUAUUACCUGGUA [A28C A49U], GUCCUCUUUCACGUGCGCGUGAAAGAUAGAAGUGAACCAGAGAAACACACGUUGUGGUAUAUUACCUGGUA [G27U] is higher in self-cleavage: 0.192 for the first, 0.282 for the second.
